Source: paper PMC11610291

Assays:
ACKR4-HA (human) [1] = biological target: T1, ACKR4-HA (human) (UniProt Q9NPB9)
T1 sequence: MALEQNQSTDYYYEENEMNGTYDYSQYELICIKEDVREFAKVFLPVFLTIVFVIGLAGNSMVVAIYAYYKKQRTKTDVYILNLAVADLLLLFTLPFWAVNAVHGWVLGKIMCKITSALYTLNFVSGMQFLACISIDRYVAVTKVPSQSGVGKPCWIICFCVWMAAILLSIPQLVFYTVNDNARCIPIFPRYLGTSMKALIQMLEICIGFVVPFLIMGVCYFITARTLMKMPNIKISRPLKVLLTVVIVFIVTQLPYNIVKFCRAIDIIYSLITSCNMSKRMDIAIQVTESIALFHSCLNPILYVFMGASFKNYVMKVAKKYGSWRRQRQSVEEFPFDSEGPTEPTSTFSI

ACKR4-HA (human) [2] = biological target: T1, ACKR4-HA (human); remark: listed apart in the source

Sequence of smBiT-βarrestin2 (P32121 whole entry): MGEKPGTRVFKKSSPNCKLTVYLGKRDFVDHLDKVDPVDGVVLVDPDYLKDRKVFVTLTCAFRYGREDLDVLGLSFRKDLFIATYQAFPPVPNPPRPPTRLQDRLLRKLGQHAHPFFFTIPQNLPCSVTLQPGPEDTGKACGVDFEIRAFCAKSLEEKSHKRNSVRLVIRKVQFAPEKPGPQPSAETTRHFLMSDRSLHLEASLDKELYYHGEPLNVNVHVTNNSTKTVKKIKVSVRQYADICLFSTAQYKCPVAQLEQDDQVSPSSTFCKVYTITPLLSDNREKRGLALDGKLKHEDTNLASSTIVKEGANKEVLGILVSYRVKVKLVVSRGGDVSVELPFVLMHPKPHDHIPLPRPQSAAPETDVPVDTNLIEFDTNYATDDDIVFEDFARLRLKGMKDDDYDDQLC
Sequence of smBiT-βarrestin1 (P49407 whole entry): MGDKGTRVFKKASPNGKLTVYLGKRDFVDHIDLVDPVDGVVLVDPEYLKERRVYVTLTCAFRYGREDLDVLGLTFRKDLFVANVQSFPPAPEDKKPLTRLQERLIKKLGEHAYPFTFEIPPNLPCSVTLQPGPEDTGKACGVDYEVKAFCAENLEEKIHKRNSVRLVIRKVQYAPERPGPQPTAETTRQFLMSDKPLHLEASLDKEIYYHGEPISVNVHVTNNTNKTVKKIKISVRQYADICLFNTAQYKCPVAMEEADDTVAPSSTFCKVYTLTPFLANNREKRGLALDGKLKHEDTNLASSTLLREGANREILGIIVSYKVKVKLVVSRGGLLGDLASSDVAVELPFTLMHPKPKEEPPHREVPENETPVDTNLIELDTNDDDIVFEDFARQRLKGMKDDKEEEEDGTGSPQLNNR

Row | bystander NanoBiT (smBiT-βarrestin1 with lgBiT-CAAX) in HEK293: CCL19-driven recruitment to the plasma membrane, as compared to native ACKR4 (% of native ACKR4) (ACKR4-HA (human) [1]) | bystander NanoBiT (smBiT-βarrestin1 with lgBiT-CAAX) in HEK293: pre-association with the plasma membrane in the absence of CCL19, as compared to cells expressing native ACKR4 (times higher than native ACKR4) (ACKR4-HA (human) [2]) | bystander NanoBiT (smBiT-βarrestin2 with lgBiT-CAAX) in HEK293: CCL19-driven recruitment to the plasma membrane, as compared to native ACKR4 (% of native ACKR4) (ACKR4-HA (human) [1]) | bystander NanoBiT (smBiT-βarrestin2 with lgBiT-CAAX) in HEK293: pre-association with the plasma membrane in the absence of CCL19, as compared to cells expressing native ACKR4 (times higher than native ACKR4) (ACKR4-HA (human) [2]) | Substance
1 | 42 | 2.9 |  |  | smBiT-βarrestin1 (from UniProt P49407 1-418) (natural protein)
2 |  |  | 27 | 3.3 | smBiT-βarrestin2 (from UniProt P32121 1-409) (natural protein)
